Consider 29 molecules from US7399745 (dated 2008).

Holding throughout (assay): competition
In experiment [1] the target is T1, GLP-1 receptor (rat), P32301.
T1 chain: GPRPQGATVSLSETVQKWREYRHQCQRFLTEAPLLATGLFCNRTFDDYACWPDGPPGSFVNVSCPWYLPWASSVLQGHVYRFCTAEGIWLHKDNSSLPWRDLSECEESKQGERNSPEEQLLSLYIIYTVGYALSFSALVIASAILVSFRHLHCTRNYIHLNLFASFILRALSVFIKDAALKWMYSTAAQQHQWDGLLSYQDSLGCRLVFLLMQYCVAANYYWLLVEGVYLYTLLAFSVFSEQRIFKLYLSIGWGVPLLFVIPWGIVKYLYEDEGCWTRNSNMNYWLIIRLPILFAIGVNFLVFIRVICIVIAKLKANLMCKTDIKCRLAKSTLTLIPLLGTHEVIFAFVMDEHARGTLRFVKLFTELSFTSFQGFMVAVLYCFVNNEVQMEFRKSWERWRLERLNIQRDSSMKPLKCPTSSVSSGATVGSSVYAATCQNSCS
The following applies: modification not given.

The target of experiment [2] is T2, Glucagon receptor (rat), P30082.
T2 chain: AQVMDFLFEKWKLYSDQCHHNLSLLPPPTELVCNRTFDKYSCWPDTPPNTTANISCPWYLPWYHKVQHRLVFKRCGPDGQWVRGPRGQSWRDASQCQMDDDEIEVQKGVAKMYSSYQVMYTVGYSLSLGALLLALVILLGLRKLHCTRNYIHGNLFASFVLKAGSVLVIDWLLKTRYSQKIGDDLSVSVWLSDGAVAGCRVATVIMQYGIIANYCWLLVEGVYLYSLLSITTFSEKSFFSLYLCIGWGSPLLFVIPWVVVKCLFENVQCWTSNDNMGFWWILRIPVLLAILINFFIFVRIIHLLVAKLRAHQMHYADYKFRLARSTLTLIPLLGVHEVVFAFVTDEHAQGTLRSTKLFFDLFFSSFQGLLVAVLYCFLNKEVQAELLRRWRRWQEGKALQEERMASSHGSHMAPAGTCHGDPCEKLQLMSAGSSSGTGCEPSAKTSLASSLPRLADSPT
The following applies: modification not given.

A further experiment addresses T3, GLP-1 receptor (rat, UniProt P32301).
T3 chain: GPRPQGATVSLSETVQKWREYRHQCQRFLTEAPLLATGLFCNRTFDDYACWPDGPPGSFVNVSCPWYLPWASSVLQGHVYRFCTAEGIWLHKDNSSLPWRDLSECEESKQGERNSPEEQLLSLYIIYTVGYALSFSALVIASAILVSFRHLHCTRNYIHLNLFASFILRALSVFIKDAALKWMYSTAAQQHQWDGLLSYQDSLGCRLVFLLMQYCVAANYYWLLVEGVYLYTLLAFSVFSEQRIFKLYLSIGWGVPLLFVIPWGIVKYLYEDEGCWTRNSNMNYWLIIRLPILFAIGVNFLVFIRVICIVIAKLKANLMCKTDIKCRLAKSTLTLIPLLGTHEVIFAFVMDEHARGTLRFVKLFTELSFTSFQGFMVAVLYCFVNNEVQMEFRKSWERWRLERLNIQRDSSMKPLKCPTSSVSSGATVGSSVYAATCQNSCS

A further experiment deals with T4, Glucagon receptor (rat, UniProt P30082).
T4 chain: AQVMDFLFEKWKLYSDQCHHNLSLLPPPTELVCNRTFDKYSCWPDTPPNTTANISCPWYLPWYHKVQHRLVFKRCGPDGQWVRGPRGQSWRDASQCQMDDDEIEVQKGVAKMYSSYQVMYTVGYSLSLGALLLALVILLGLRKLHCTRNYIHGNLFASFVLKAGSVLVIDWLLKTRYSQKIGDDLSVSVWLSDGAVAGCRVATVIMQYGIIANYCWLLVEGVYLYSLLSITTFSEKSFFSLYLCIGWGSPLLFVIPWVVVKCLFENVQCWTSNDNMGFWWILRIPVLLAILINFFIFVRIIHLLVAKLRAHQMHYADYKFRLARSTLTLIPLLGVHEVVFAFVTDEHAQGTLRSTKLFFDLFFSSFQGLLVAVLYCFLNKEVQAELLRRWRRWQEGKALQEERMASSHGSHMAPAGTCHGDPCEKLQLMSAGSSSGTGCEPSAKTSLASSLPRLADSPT

Where no end group is shown, it is not given here.

For HSQGTFTSDYAAYLDARRAKEFIAWLVKGR [G56], the half-maximal inhibitory concentration (IC50) in experiment [1] came out at 6.6 nM; in experiment [2], 125 nM.
Regarding HSQGTFTSDYARYLDARRAREFIKWLVRGRGK [G182], the concentration for half-maximal inhibition (IC50) in experiment [1] was found to be 12.6 nM; in experiment [2], 220 nM.
On to HSQGTFTSDYARYLDARRAREFIAWLVRGRGK [G85], for which the IC50 was 1.5 nM in experiment [1] and 16.1 nM in experiment [2].
With HSQGTFTSDYARYLDARRAREFIKWLVRGRG [G90], the IC50 amounted to 25.4 nM in experiment [1] and 726 nM in experiment [2].
For the molecule HSQGTFTSDYARYLDARRAREFIKWLVRGRG [G83], the figures for the IC50 in experiment [1] and in experiment [2] were 3.2 nM and 28.6 nM, respectively.
The matching figures for HSQGTFTSDYARYLDARRAREFIKWLVRGRC [G185]: 4.5 nM and 48 nM.
The matching figures for HSQGTFTSDYARYLDARRAKEFIKWLVRGRG [G183]: 159 nM and 663 nM.
Taken in the same sequence, the figures for HSQGTFTSDYARYLDARRAKEFIAWLVKGR [G55] were 9.8 nM and 139 nM.
As for HSQGTFTSDYAKYLDARRAKEFIAWLVKGR [G87], the half-maximal inhibitory concentration (IC50) in experiment [1] was 98.6 nM; in experiment [2] it was 620 nM.
On to HSQGTFTSDYAKYLDAARAKEFIAWLVKGR [G57], for which the half-inhibitory concentration (IC50) in experiment [1] was 14.7 nM; in experiment [2], 178 nM.
For HSQGTFTSDYSKYLDSRRAQDFVQWLVKGR [G1], the figures for the concentration for half-maximal inhibition (IC50) in experiment [1] and in experiment [2] were 6 nM and 6.6 nM, respectively.
On to HSQGTFTSDYARYLDARRAREFIKWLVRGRC(PEG 22 kD) [G2185], for which the values for the half-inhibitory concentration (IC50) with GLP-1 receptor and in the experiment with Glucagon receptor were 56.1 nM and 347 nM, respectively.
Take HSQGTFTSDYAKYLDARRACEFIAWLVKGRG [G71]: the 50% inhibitory concentration (IC50) came to 5.8 nM in experiment [1] and 25.6 nM in experiment [2].
The matching figures for HSQGTFTSDYAKYLDARRAKEFIAWLVKCRG [G75]: 7.7 nM and 54 nM.
Take HSQGTFTSDYAKYLDARRAKEFIAWLVKGRK [G88]: the IC50 in experiment [1] was 109 nM; in experiment [2], 350 nM.
The matching figures for HSQGTFTSDYAKYLDAAKAKEFIAWLVKGRG [G60]: 13.8 nM and 682 nM.
Turning to HSQGTFTSDYARYLDARRAREFIAWLVKGRG [G84], the 50% inhibitory concentration (IC50) stood at 1.4 nM in experiment [1] and 11.7 nM in experiment [2].
HSQGTFTSDYAKYLDARRAKEFIAWLVCGRG [G74]: the figures for the half-inhibitory concentration (IC50) in experiment [1] and in experiment [2] were 4.4 nM and 21.7 nM, respectively.
The matching figures for HSQGTFTSDYAKYLDARRAKEFIAWLVKGCG [G76]: 10.2 nM and 59.1 nM.
As to HSQGTFTSDYAKYLDAKKAKEFIAWLVKGRG [G58], the concentration for half-maximal inhibition (IC50) in experiment [1] turned out to be 6.9 nM; in experiment [2], 164 nM.
The matching figures for HSQGTFTSDYAKYLDARRAKEFIAWLVKGRG [G51]: 8.2 nM and 154 nM.
For the molecule HSQGTFTSDYARYLDARRAKEFIAWLVRGRG [G82], the results for the concentration for half-maximal inhibition (IC50) in experiment [1] and in experiment [2] were 8.1 nM and 33.6 nM, respectively.
On to HSQGTFTSDYAKYLDARRAKEFIAWLVKGRC [G77], for which the 50% inhibitory concentration (IC50) in experiment [1] is 8.9 nM; in experiment [2], 61.1 nM.
In the experiment with Glucagon receptor, HSQGTFTSDYAKYLDARRAKEFIAWLVKGRC(PEG 22 kD) [G277] registered an IC50 of 65.5 nM.
With HSQGTFTSDYSKYLEGQAAKEFIAWLVKGR [G5], the IC50 was 0.5 nM in experiment [1] and 243 nM in experiment [2].
As for HSQGTFTSDYARYLDARRAREFIKWLVRGRC(PEG 43 kD) [G4185], the results for the IC50 in the experiment with GLP-1 receptor and with Glucagon receptor were 248 nM and 547 nM, respectively.
As for HSQGTFTSDYAKYLDARRAKEFIAWLVKGR [G27], the half-maximal inhibitory concentration (IC50) in experiment [1] was determined as 2.2 nM; in experiment [2] it was 69.3 nM.
For HSQGTFTSDYARYLDAKKAKEFIAWLVKGRG [G59], the IC50 in experiment [1] came out at 2.1 nM; in experiment [2] it was 97.5 nM.
The matching figures for HSQGTFTSDYARYLDAAKAKEFIAWLVKGRG [G61]: 10.6 nM and 232 nM.
